{
  "source": "patent US20250049892A1",
  "about": "“SEMAGLUTIDE SOLUBLE MICRONEEDLE COMPOSITION AND PREPARATION METHOD THEREFOR” (GUANGZHOU NOVAKEN PHARM CO., LTD., priority 2022, published 2025)",
  "origin": "cited, not measured here",
  "settings": "oral administration of semaglutide (with SNAC)",
  "data": [
    {"substance": "Semaglutide", "values": [
      {"measurement": "bioavailability", "result": "0.9-1.2%"}
    ]}
  ]
}
